Source: patent US20050118615A1 (COMPUGEN, published 2005)

Key:
[1] = biological target: T1, recombinant human BMP-6 (R&D Systems) (human, UniProt P22004 382-513, limits assumed); assay: pull-down on Talon metal affinity resin with immobilised His-hCHL2, immunoblot with anti-BMP-6 antibody
T1 construct: Bought reagent
T1 sequence (looked up): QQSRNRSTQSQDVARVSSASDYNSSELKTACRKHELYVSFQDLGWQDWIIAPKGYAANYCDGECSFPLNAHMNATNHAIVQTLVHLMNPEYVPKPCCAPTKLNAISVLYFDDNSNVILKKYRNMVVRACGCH
From the text: (§1) Protein binding assays with His-tagged hCHL2 protein Culture media of COS7 cells, transfected with hCHL2 cloned in pcDNA4/His, or empty vector (see above), were collected every 24 hrs, beginning at 48 hrs after transfection for a total of 96 hrs, and concentrated 10-fold by ultrafiltration through a YM Millipore membrane under nitrogen pressure (Millipore, Bedford, Mass.) before binding of secreted His-tagged hCHL2 to BD TALONTM Metal Affinity Resin (Clontech, Palo Alto, Calif.). The resin was added to the concentrated medium, rotated for 30 min at room temperature, and then washed twice with loading buffer (50 mM NaH₂PO₄, pH 8, 300 mM NaCl, 5 mM imidazole) and resuspended in 200 μl of binding buffer (1 mM CaCl₂, 3 mM MgCl₂, 0.2% NP-40, 1 mg/ml BSA in PBS). The His-hCHL2, immobilized on the resin, was incubated with 200 ng of recombinant human BMP-2, -4, -6 or Activin A (all purchased from R&D Systems), while rotating for 1 hr at room temperature, and then washed once with binding buffer and twice with binding buffer supplemented with 0.2% Tween. […]
(§2) COS-7 cells were transfected with a pcDNA4 (Invitrogen, Carlsbad, Calif.) vector expressing His-tagged hCHL2 (coding region corresponding to variant II, SEQ ID NO:6), and the culture media were collected for 72 hrs. […] No interaction was detected with any of the other proteins tested (BMP-2, 4, or 6).

[2] = biological target: T2, recombinant human BMP-2 (R&D Systems) (human, UniProt P12643 283-396); assay: pull-down on Talon metal affinity resin with immobilised His-hCHL2, immunoblot with anti-BMP2/4 antibody
T2 construct: Bought reagent
T2 sequence (P12643 283-396 limits assumed): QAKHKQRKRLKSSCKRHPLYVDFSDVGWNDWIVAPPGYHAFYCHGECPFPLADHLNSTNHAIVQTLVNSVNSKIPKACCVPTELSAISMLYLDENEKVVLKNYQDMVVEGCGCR
From the text: as §1, §2

[3] = biological target: T3, recombinant human BMP-4 (R&D Systems) (human, UniProt P12644 293-408); assay: as above
T3 construct: Bought reagent
T3 sequence (looked up): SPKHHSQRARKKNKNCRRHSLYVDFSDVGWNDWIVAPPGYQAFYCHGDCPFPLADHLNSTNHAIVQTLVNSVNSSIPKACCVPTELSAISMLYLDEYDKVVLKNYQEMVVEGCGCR
From the text: as §1, §2

binding result [1]: no binding (tested: 200 ng) | binding result [2]: no binding (tested: 200 ng) | binding result [3]: no binding (tested: 200 ng)
B1: His-tagged hCHL2 (variant II), secreted from COS-7 cells transfected with pcDNA4/myc-His-hCHL2 (other, not shown: small tags and cut ends)
chain: RARPDMFCLFHGKRYSPGESWHPYLEPQGLMYCLRCTCSEGAHVSCYRLHCPPVHCPQPVTEPQQCCPKCVEPHTPSGLRAPPKSCQHNGTMYQHGEIFSAHELFPSRLPNQCVLCSCTEGQIYCGLTTCPEPGCPAPLPLPDSCCQACKDEASEQSDEEDRVQSLHGVRHPQDPCSSDAGRKRGPGTPAPTGLSAPLSFIPRHFIPKGAGSTTVKIVLKEKHKKACVHGGKTYSHGEVWHPAFRAFGPLPCILCTCEDGRQDCQRVTCPTEYPCRHPEKVAGKCCKICPEDKADPGHSEISSTRCPKAPGRVLVHTSVSPSPDNLRRFALEHEASDLVEIYLWKLVKDEETEAQRGEVPGPRPHSQNLPLDSDQESQEARLPERGTALPTARWPPRRSLERLPSPDPGAEGHGQSRQSDQDITKT
notes: also called His-tagged hCHL2 protein
